Measurements: patent US20240010748A1 (SHANGHAI QILU PHARMACEUTICAL RESEARCH AND DEVELOPMENT CENTRE, published 2024)

Tests used:
[1] = target: T1, human Claudin 18.2 (hCLDN18.2) on stably-transfected HEK293 cells (human, UniProt P56856-2 1-261); test: cell-based or functional assay
T1 sequence (looked up): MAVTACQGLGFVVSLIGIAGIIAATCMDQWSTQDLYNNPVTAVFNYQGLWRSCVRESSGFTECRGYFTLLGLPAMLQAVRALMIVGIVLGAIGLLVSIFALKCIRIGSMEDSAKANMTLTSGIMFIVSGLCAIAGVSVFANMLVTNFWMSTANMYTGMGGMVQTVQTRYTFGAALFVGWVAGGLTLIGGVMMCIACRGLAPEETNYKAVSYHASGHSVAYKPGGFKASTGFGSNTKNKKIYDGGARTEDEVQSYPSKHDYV

[2] = target: T2, human CD3 E&D protein (human, UniProt P07766 23-126; P04234 22-105); test: SPR (Biacore 8K), CD3 E&D immobilised by amino coupling, antibody as analyte, 1:1 fit
T2 construct: Soluble CD3 epsilon and delta protein immobilised on the chip; also called Humanized CD3 E&D; humanized CD3 E&D protein
Experimental: The affinity and kinetic properties of the bispecific antibodies to human CD3 E&D proteins were determined by surface plasmon resonance (SPR) using a Biacore 8K instrument. The human CD3 E&D protein was immobilized on the experimental channel of CMS chip by amino coupling, then the antibody to be tested was subjected to doubling dilution to serial concentrations, flowed through the surfaces of an experimental channel and a reference channel successively for binding, followed by dissociation, the binding and dissociation curve of each sample was obtained, and the results were analyzed and evaluated by Biacore Insight Evaluation software.
The bispecific antibodies of the present disclosure were diluted to 400 nM with 1×HBS-EP+ (10 mM HEPES, pH 7.4, 150 mM NaCl, 3 mM EDTA, 0.05% P20) running buffer, then subjected to doubling dilution to 1.56 nM with this buffer, thus obtaining antibody solutions in a range of concentrations from 400 nM to 1.56 nM. At the end of each experiment, the chip was regenerated by washing with 3M MgCl₂ solution at a flow rate of 30 μL/min for 30 s to remove captured antibody together with antigen. The raw data were analyzed using Biacore Insight Evaluation Software (version 2.0.15.12933) with a 1:1 fit model and affinity and kinetic experimental data of the resulting bispecific antibodies were shown in Table 4.

[3] = target: T3, human CD3 (hCD3) naturally expressed on Jurkat cells (human, UniProt P07766 23-207); test: cell-based or functional assay
[4] = target: T1, human Claudin 18.2 (hCLDN18.2) on …; test: FACS on HEK293-hCLDN18.2 cells
Experimental: (§1) The binding situation of the anti-CD3-CLDN18.2 bispecific antibodies to stably-transfected HEK293 cells expressing hCLDN18.2 (HEK293-hCLDN18.2) and T lymphocytes naturally expressing hCD3 (Jurkat) were detected by using FACS.
(§2) HEK293-hCLDN18.2 or Jurkat cells were collected and re-suspended with FACS buffer (PBS+1% BSA+0.5 mM EDTA), after adjusting the cell concentration, 1E5 cells per well were added into a 96-well plate, and then the antibody after gradient dilution was added according to the preset concentration, wherein the negative control was human IgG1AA (Negative-IgG1AA), the positive control of CLDN18.2 was antibody 6#AA, and the positive control of CD3 was antibody h160C9AA. Following incubation in a 4° C. shaking table for 2 h, the mixture was centrifugally washed twice with FACS buffer, added with fluorescently labeled anti-human IgG secondary antibody, 100 μL per well; after incubation in a 4° C. shaking table for 1 h, the mixture was centrifugally washed twice with FACS buffer, the cells were filtered to a 96-well plate, and then the prepared sample was detected on a flow cytometer; the mean fluorescence intensity (hereinafter referred to as MFI) for each concentration was calculated by software, and then the median effective concentration (hereinafter referred to as EC₅₀) and the top mean fluorescence intensity (Top MFI) were calculated by GraphPad software, and the results were shown in Table 3.

[5] = target: T1, human Claudin 18.2 (hCLDN18.2) on …; test: cell-based or functional assay; remark: listed apart in the source
[6] = target: T4, Cynomolgus macaques Claudin 18 (cynoCLDN18) on stably-transfected HEK293 cells (Cynomolgus macaques, UniProt A0A2K5VVB4 1-261); test: FACS on HEK293-cynoCLDN18 cells
T4 chain: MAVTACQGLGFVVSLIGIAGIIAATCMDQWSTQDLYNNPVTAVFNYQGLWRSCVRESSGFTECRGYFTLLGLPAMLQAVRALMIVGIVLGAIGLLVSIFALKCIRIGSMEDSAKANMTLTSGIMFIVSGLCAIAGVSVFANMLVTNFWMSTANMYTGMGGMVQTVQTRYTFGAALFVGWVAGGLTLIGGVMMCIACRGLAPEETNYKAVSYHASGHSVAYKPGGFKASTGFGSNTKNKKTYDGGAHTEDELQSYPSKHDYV

[7] = target: T3, human CD3 (hCD3) naturally expressed on …; test: FACS on Jurkat cells
Experimental: as §1, §2

[8] = target: T3, human CD3 (hCD3) naturally expressed on …; test: FACS on Jurkat cells (natural hCD3), fluorescent anti-human IgG secondary antibody
Experimental: as §1
HEK293-hCLDN18.2 or Jurkat cells were collected and re-suspended with FACS buffer (PBS+1% BSA+0.5 mM EDTA), after adjusting the cell concentration, 1E5 cells per well were added into a 96-well plate, and then the antibody after gradient dilution was added according to the preset concentration, wherein the negative control was human IgG1AA (Negative-IgG1AA), the positive control of CLDN18.2 was antibody 6#AA, and the positive control of CD3 was antibody h160C9AA. […]

T2 sequence (P07766 23-126, chain 1 of 2): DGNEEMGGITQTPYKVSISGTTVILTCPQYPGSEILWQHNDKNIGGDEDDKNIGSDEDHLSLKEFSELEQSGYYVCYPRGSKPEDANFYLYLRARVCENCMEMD
T2 sequence (P04234 22-105, chain 2 of 2): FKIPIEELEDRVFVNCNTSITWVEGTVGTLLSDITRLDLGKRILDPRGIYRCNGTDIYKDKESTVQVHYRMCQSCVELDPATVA
T3 sequence (P07766 23-207): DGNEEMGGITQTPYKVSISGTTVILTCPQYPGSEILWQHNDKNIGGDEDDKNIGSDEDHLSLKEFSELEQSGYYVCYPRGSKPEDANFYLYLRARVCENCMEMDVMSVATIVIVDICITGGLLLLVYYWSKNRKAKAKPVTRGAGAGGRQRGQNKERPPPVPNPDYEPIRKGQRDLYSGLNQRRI

B1: 31905-44AA (bispecific antibody, human IgG1, kappa, L234A L235A)
heavy 1: not shown
heavy 2: QVQLVQSGAEVKKPGASVKVSCKASGYIFTNYWIHWVRQAPGQGLEWMGRIYPGTGNTYYNEKFTGRVTMTRDTSTSTVYMELSSLRSEDTAVYYCAREGYGKGNSMDYWGQGTTVTVSSASTKGPSVFPLAPSSKSTSGGTAALGCLVKDYFPEPVTVSWNSGALTSGVHTFPAVLQSSGLYSLSSVVTVPSSSLGTQTYICNVNHKPSNTKVDKKVEPKSCDKTHTCPPCPAPEAAGGPSVFLFPPKPKDTLMISRTPEVTCVVVDVSHEDPEVKFNWYVDGVEVHNAKTKPREEQYNSTYRVVSVLTVLHQDWLNGKEYKCKVSNKALPAPIEKTISKAKGQPREPQVCTLPPSRDELTKNQVSLSCAVKGFYPSDIAVEWESNGQPENNYKTTPPVLDSDGSFFLVSKLTVDKSRWQQGNVFSCSVMHEALHNRYTQKSLSLSPGK
light: not shown
notes: Full-length 6#AA with one anti-CD3 scFv of h160C9AA on the C-terminus of one heavy chain; knob-into-hole; Fc with L234A/L235A; also called anti-CD3-CLDN18.2 bispecific antibody; CD3 monovalent antibody
- ADCC activity, EC50 [1]: 0.532 nM
- ADCC activity, Maximum lysis (%) [1]: 7.03%
- Kd [2]: 17.9 nM
- koff [2]: 0.00365 s⁻¹
- kon [2]: 204000 M⁻¹ s⁻¹
- Jurkat-NFAT luciferase reporter, EC50 [3]: 124 nM
- Jurkat-NFAT luciferase reporter, Fluorescence value (Max) [3]: 114000
- EC50 [4]: 1.18 nM
- Top mean fluorescence intensity (Top MFI) [4]: 31000 MFI
- T cell activation, CD25+CD69+ % [5]: 33.4%
- T cell activation, EC50 [5]: 0.049 nM
- TDCC activity, EC50 [5]: 0.54 nM
- TDCC activity, Maximum lysis (%) [5]: 30%
- EC50 [6]: 0.84 nM
- MFI (Max) [6]: 41800 MFI
- EC50 [7]: 9.3 nM
- Top mean fluorescence intensity (Top MFI) [7]: 1700 MFI

B2: 6#AA (antibody, human IgG1, kappa, L234A L235A, V domains shown)
VH: QVQLVQSGAEVKKPGASVKVSCKASGYIFTNYWIHWVRQAPGQGLEWMGRIYPGTGNTYYNEKFTGRVTMTRDTSTSTVYMELSSLRSEDTAVYYCAREGYGKGNSMDYWGQGTTVTVSS
VL: DIVMTQSPDSLAVSLGERVTMNCKSSQSLLNAGNQKNYLTWYQQKPGQPPKLLFYWASTRESGVPDRFSGSGSGTDFTLTISSVQAEDVAVYHCQNAYYYPYTFGGGTKLEIKR
notes: Anti-human CLDN18.2 full-length antibody, IgG1 Fc with L234A/L235A
- ADCC activity, EC50 [1]: 0.771 nM
- ADCC activity, Maximum lysis (%) [1]: 6.92%
- binding result [8]: no binding (tested: about 2e-7 M (log M about -6.7))
- Jurkat-NFAT luciferase reporter, Fluorescence value (Max) [3]: 0
- EC50 [4]: 0.95 nM
- Top mean fluorescence intensity (Top MFI) [4]: 18600 MFI
- T cell activation, CD25+CD69+ % [5]: 3.18%
- TDCC activity, EC50 [5]: 1.45 nM
- TDCC activity, Maximum lysis (%) [5]: 16.3%
- EC50 [6]: 0.62 nM
- MFI (Max) [6]: 39500 MFI
- Top mean fluorescence intensity (Top MFI) [7]: 26 MFI

B3: h160C9AA (antibody, human IgG1, lambda, L234A L235A, V domains shown)
VH: EVKLVESGGGLVQPGGSLKLSCAASGFTFNTYAMNWVRQAPGKGLEWVARIRSKYNNYATYYADSVKDRFTISRDDAKNTLYLQMNNLRTEDTAVYYCVRHGNFGNSYVSWFAYWGQGTLVTVSS
VL: QAVVTQEPSLTVSPGGTVTLTCRSSTGAVTTSNYANWVQQKPGQAPRGLIGGTNKRAPGTPARFSGSLLGGKAALTLSGAQPEDEAEYYCALWYSNLWVFGGGTKLTVLG
notes: Anti-CD3 full-length antibody, Fc with L234A/L235A
- Jurkat-NFAT luciferase reporter, EC50 [3]: 0.32 nM
- Jurkat-NFAT luciferase reporter, Fluorescence value (Max) [3]: 220000
- Top mean fluorescence intensity (Top MFI) [4]: 897 MFI
- MFI (Max) [6]: 1040 MFI
- EC50 [7]: 0.13 nM
- Top mean fluorescence intensity (Top MFI) [7]: 2020 MFI
